Measured values published in PMC5923459.

Molecular target: importin β1 (mouse (endogenous in 3T6)) (UniProt P70168)
Assay: proximity ligation

Sequence of wild type mouse polyomavirus (MPyV) virions, strain A3 (capsid proteins VP1, VP2 and VP3) (P03097 whole entry, looked up): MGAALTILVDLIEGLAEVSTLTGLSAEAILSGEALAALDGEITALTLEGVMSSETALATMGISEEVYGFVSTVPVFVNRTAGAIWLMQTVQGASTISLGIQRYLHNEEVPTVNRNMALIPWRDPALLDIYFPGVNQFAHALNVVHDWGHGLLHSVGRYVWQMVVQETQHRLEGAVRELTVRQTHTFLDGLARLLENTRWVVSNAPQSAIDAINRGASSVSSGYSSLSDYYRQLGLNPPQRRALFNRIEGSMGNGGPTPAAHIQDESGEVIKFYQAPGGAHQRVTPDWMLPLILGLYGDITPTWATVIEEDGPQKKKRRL
Sequence of wild type mouse polyomavirus (MPyV) virions, strain A3 (capsid proteins VP1, VP2 and VP3) (P03091 whole entry, looked up): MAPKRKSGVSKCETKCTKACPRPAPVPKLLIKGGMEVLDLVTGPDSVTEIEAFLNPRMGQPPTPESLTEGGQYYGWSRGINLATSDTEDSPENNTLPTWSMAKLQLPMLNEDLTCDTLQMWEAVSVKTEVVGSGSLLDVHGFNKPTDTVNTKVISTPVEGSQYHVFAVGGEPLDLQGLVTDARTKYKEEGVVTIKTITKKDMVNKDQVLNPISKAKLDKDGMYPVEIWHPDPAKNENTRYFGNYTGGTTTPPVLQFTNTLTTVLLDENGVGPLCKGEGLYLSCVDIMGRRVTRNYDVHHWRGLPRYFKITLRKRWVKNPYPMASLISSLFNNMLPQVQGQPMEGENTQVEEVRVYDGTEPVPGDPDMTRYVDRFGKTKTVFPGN
Sequence of importin β1 (mouse (endogenous in 3T6)) (P70168 whole entry): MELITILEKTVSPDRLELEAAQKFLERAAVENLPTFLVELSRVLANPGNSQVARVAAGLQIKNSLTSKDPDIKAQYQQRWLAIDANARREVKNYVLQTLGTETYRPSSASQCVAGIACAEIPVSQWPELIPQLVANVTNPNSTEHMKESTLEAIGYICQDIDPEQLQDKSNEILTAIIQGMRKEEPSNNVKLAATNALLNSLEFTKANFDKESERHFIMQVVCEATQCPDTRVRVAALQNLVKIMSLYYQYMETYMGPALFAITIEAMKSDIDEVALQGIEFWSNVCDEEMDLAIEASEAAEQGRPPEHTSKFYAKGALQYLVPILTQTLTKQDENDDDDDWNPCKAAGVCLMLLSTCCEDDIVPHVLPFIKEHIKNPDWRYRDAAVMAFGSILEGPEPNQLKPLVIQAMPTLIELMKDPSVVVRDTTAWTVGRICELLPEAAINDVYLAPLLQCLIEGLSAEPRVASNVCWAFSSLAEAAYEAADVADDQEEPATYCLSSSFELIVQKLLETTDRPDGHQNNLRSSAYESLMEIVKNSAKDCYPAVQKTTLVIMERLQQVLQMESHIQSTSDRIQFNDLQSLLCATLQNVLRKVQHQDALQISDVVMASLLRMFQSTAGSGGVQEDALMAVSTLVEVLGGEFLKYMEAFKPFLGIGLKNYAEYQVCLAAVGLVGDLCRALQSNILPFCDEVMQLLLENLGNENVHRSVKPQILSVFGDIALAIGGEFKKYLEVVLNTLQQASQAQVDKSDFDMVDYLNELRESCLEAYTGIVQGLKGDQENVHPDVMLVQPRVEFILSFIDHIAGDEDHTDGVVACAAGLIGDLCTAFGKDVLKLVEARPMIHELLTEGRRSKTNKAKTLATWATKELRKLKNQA

“wild type mouse polyomavirus (MPyV) virions, strain A3 (capsid proteins VP1, VP2 and VP3) (from UniProt P03091;P03097) (complex)” showed a PLA spots per 50 cells (spots per 50 cells) greater than 1000.
